US20220073907A1, “TAGLESS ENCODED CHEMICAL LIBRARY” (NANNA THERAPEUTICS LIMITED, priority 2016, published 2022)

Experiments:
[1] = test system: cleavable oligonucleotide; assay: Enzymatic release of BHQ-1 quencher from FITC-labelled cleavable oligonucleotide, denaturing gel; format: biochemical; details: 10-fold serial dilutions of stock enzyme from 10^−2 to 10^−5 in 10 mM Tris-HCl pH 7.5, 1 mM EDTA; 150 nM cleavable oligonucleotide
Source text: Referring now to FIG. 4, to show cleavage of the linker and release of the pharmacore oligonucleotides were made which incorporated a fluorophore (FITC, shown as F in FIG. 4) 5′ to the cleavable linker within the sequence of the cleavable oligonucleotide. A quencher molecule, BHQ-1, was then attached to the cleavable linker. This can be released by cleavage in the same manner as any chemical structure used in library generation. Light up of the oligonucleotide is seen when the quencher is removed from the cleavable linker.
Three different enzymes have been identified which cleave their associated linkers in a scarless manner (RNase A, RNase T1 A and RNase 1 A; labelled as enzymes A, B and C respectively in FIG. 4). All 3 were tested with their compatriot linkers. In each case 10 μl reactions were set up; 10 mM Tris-HCl, 1 mM EDTA, 150 nM cleavable oligonucleotide 0.1 μl of stock enzyme (RNase A=10 mg/ml, RNase T1=10 mg/ml RNase 1=1.5 mg/ml) then to 10 μl with nuclease free water. Samples were incubated for 15 minutes at 37° C. and then 10 μL denaturing loading dye added (95% formamide, 0.1% xylene cyanole, 0.1% Bromophenol Blue, 20 mM Tris-HCl pH 7.5). Samples were boiled for 2 minutes at 95° C. and then rapidly cooled to 4° C. at 4° C./s. These samples were then loaded onto a denaturing TBE-gel (12.5% polyacrylamide, 7M Urea). The gel was run at 150V for 75 minutes and the imaged using a Syngene Ingenius3 system exciting the FITC. Release of the quencher means the fluorophore can be seen and imaged as ‘light up’. This is seen as appearance of yellow DNA band in the presence of enzyme. By staining with SyBr gold (Thermo) DNA can be seen and this is again quenched when quencher is present but the size shift corresponding to the change in mass can be seen as well as increased signal (grey scale image below fluorophore, FIG. 4). In both cases we can see release only occurs in the presence of the enzymes and is rapid (<15 minutes). […]

RNA guides = assay: RNaseA cleavage of RNA guides in growth media; format: biochemical
[2] = test system: cleavable oligonucleotide; assay: Enzymatic release of payload from cleavable linker in 100 μm aqueous droplets; format: biochemical; details: 10 μl stock RNase A (10 mg/ml) per 1 ml aqueous phase, 37° C. for 15 minutes, 100 μm droplets
Procedure: We also confirmed that the enzymes function in the droplet environment (see FIG. 5). Results are shown for RNase A. 1 ml of aqueous phase was set up using 10 mM Tris-HCl, 1 mM EDTA, 150 nM cleavable oligonucleotide 10 μl of stock RNase A (10 mg/ml) then to 1 ml with nuclease free water. Droplets of […] mean diameter were made using a 100 μm etch depth chip with the aqueous phase as described above and the oil phase comprising of PSF-2 cST oil (Clearco Products Inc.) with 2% w/v Gransurf G67 (Grant Industries Inc.) Droplets were incubated with and without enzyme at 37° C. for 15 minutes and them imaged under a Floid fluorescence microscope illuminating at 482/18 nm and emission filters of 532/59 nm.

Jurkat cells = assay: Effect of RNaseA in the cell mixture on cellular growth; format: cell-based; details: 0.1 μg/ml in the cell mixture
Source text: DNA guides assembly of monomers—were synthesised using conventional chemistry the RNA tags were synthesised in advance by IDT. The last 3 nucleotides contain phosphorothioate linkages to prevent cleavage by exonucleases. Individual reagents are then tagged with a guide to a specific RNA specific to a unique sequence incorporated into the guide oligonucleotide (100 unique monomers can be assembled, assuming up to 4 guide sequences into over 100,000,000 unique compounds). […] 1) Beads are packed into a column (each bead is clonal with a unique DNA sequence to guide assembly but μM concentrations of this clonal guide on each bead) and at 20 μM 200 million can be present per ml of bead volume. 2) A pool of monomers and appropriate reagents are then washed onto the column and reactions allowed to proceed, the column can be washed and new reaction chemistry added as needed (note fresh monomers can also be added). 3) Chemical synthesis varies with monomers used (see example 2, section 4). 4) Finally the beads are washed with 10 column volumes of TE with 100 mM NaCl and then 2 column volumes of appropriate media for growth of cells in the phenotypic screen e.g. RPMI. 5) Beads are then collected in the growth media and ready for encapsulation with target cells. […]

| Molecule | dilution of the enzyme at which activity is seen [1] | duration of enzyme activity in growth media (RNA guides; 0.1 μg/ml, growth media tested) | time for cleavage of RNA guides (RNA guides; in RPMI, lysogeny broth, tryptic soy broth and DMEM) [min] | light up (quencher release) in droplets [2] | effect on cellular growth (Jurkat cells) |
| --- | --- | --- | --- | --- | --- |
| RNase 1: enzyme which cleaves its associated linker in a scarless manner; stock 1.5 mg/ml | 10^−3 |  |  |  |  |
| RNase T1: enzyme which cleaves its associated linker in a scarless manner; stock 10 mg/ml (protein, UniProt P00651 27-130, looked up) Guanyl-specific ribonuclease …: ACDYTCGSNCYSSSDVSTAQAAGYQLHEDGETVGSNSYPHKYNNYEGFDFSVSSPYYEWPILSSGDVYSGGSPGADRVVFNENNQLAGVITHTGASGNNFVECT | 10^−3 |  |  |  |  |
| RNase A: enzyme which cleaves its associated RNA linker in a scarless manner; stock 10 mg/ml (protein, UniProt P61823 27-150, looked up) Ribonuclease pancreatic: KETAAAKFERQHMDSSTSAASSSNYCNQMMKSRNLTKDRCKPVNTFVHESLADVQAVCSQKNVACKNGQTNCYQSYSTMSITDCRETGSSKYPNCAYKTTQANKHIIVACEGNPYVPVHFDASV | 10^−4 | at least 48 h | 15 to 20 | light up occurs in droplets in the presence of enzyme | doesn't affect cellular growth |
